The source of these data is paper PMC7486200.

For series [1], the target named is GATA1 (UniProt P15976 1-413). Put plainly: competition.
In series [2] the target is FAM122A (UniProt Q96E09 1-287). Put plainly: EMSA. (In general: A gel shift assay detects complexes by their altered migration in electrophoresis.)
FAM122A, sequence (Q96E09 whole entry): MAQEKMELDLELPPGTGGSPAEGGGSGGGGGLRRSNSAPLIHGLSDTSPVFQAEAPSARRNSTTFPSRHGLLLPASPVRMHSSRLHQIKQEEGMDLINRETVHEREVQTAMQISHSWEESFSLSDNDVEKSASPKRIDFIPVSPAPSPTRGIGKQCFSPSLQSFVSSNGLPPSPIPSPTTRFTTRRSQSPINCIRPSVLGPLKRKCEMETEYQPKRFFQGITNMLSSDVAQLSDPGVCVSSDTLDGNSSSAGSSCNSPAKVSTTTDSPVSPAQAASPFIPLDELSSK

GATA1, sequence (P15976 whole entry): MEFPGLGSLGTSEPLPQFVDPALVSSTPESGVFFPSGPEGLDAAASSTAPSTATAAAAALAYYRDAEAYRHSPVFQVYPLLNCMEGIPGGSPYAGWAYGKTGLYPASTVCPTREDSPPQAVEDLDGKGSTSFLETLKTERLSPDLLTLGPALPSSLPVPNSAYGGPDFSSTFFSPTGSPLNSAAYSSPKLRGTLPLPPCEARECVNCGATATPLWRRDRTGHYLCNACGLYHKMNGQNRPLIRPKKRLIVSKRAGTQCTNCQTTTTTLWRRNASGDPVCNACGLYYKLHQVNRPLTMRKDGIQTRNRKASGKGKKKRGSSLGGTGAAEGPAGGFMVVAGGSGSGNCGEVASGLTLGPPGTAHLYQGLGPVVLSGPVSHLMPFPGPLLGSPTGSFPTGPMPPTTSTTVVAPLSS

B1: mutant GATA competitor (dsDNA)
DNA 1: CACTTAGCGACACAAAGTAGCGACTCT
DNA 2: AGAGTCGCTACTTTGTGTCGCTAAGTG
With B1, the binding result in series [1] was “no binding”.

B2: GATA probe, two GATA sites (dsDNA)
DNA 1: CACTTGATAACACAAAGTGATAACTCT
DNA 2: AGAGTTATCACTTTGTGTTATCAAGTG
As for B2, the binding result in series [2] is “no binding”.
